In US20140335510, “NANOPARTICLE SENSOR FOR NUCLEIC ACID-PROTEIN INTERACTION” (Agency for Science, Technology and Research, published 2014):

Biological target: T1, FoxA1 (full-length) (UniProt P55317 P55317:1-472)
T1 sequence: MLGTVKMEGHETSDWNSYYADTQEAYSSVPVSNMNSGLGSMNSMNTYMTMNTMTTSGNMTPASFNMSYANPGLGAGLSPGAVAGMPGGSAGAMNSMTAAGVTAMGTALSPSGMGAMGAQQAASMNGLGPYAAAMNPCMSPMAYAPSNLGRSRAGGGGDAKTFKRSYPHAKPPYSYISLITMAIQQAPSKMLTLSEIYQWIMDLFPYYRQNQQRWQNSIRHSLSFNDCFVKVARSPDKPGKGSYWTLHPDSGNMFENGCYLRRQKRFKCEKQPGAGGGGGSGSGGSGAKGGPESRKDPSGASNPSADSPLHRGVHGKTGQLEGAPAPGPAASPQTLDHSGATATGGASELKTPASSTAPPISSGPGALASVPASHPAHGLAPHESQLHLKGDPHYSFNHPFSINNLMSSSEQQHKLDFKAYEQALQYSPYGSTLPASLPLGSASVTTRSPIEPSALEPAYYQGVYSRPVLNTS
Test: negative control; no fluorescence change of ACP-430 or CCP-410 on adding FoxA1
Conditions: tags: N-terminal His-MBP fusion, pHISMBP vector, E. coli BL21(DE3); label: 5'-thiol-AuNP on sense strand (sensor)

B1: mtR3 (dsDNA)
DNA 1: AAAGTATTCAGAATCCATG
DNA 2: CATGGATTCTGAATACTTT
  binding result: no binding
